Key:
Assay in all cases: AUC
[1] = target: I-CreI 28N30N33S38R40K44A68R70R75N (combinatorial mutant NNSRK/ARR) (Chlamydomonas reinhardti)
[2] = target: I-CreI 28N30N33S38R40K44A68S70R75N (combinatorial mutant NNSRK/ASR) (Chlamydomonas reinhardti)
[3] = target: I-CreI 28K30N33H38Q40S44K68E70G75N (combinatorial mutant KNHQS/KEG) (Chlamydomonas reinhardti)
[4] = target: I-CreI 28K30N33H38Q40S44K68A70S75N (combinatorial mutant KNHQS/KAS) (Chlamydomonas reinhardti)

“I-CreI 28N30N33S38R40K44A68R70R75N (combinatorial mutant NNSRK/ARR) (enzyme)” showed a stoichiometry N [1] of 2.

“I-CreI 28N30N33S38R40K44A68S70R75N (combinatorial mutant NNSRK/ASR) (enzyme)” gave a stoichiometry N [2] of 2.

“I-CreI 28K30N33H38Q40S44K68E70G75N (combinatorial mutant KNHQS/KEG) (enzyme)” was tested, and the stoichiometry N [3] was 2.

In the case of “I-CreI 28K30N33H38Q40S44K68A70S75N (combinatorial mutant KNHQS/KAS) (enzyme)”, the stoichiometry N [4] was 2.

From publication PMC1702487
